Measured values as given in patent US20170252403A1, “METHODS AND COMPOSITIONS FOR TREATING RETINAL DISORDERS” (AMARANTUS BIOSCIENCE HOLDINGS, INC., priority 2014, published 2017).
“And” between values parts separate entries of the source, which are not always exact repeats. Equal values may be shown once. “Also recorded” adds a separate entry of the source. Read-outs that look alike come from different tables or passages of the source.

Columns and labels:
[1] = tested on: eyes of pigmented rabbits; test: 15-day ocular tolerance study after single intravitreal administration; type: in vivo, pigmented rabbit; conditions: MANF 3 mg/mL, 100 μL single intravitreal
Source text: Ten female pigmented rabbits were divided into two groups of five animals each, corresponding to both treatments.
The eyes of the animals were examined by Split-lamp and assessed by using the McDonald-Shadduck's scale at Baseline and at Days 1, 3, 8 and 15. At the end of the in-life period on Day 15 both eyeballs of all animals were collected and processed for histology and microscopic examination.

[2] = General behavior and body weight in the rat retinal ischemia study; conditions: for Body weight, sacrifice day, mean: Day 7, group mean
Procedure: The body weight of all animals was recorded before the start of the study, on Day 0 and at the end of the study (Day 7).
Each day, the general behavior and the aspect of all animals were observed.

[3] = tested on: retinal ganglion cells (RGC); test: Retinal ganglion cell survival (Brn3a immunohistochemistry on flat-mounted retinas) after retinal ischemia; conditions: for Alive cells (BrN3A positive) in right eye, group Mean / Alive cells (BrN3A positive) in right eye, individual mean cells/mm^2: right injured eye; for Alive cells (BrN3A positive) in right eye, group Mean / Alive cells (BrN3A positive) in right eye, individual mean cells/mm^2 / RGC density, alive cells (BrN3A positive) in right eye: 7 days after ischemia; for Alive cells (BrN3A positive) in right eye, individual mean cells/mm^2: individual rats; for RGC density, alive cells (BrN3A positive) in right eye: 4 μL intravitreal once after reperfusion; for Alive cells (BrN3A positive) in right eye, group Mean / RGC density, alive cells (BrN3A positive) in right eye: group mean;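 as to all read-outs here: sprague Dawley rats, right optic nerve vessels clamped 45 min then reperfused, Brn3a-stained RGC counted on flat-mounted retinas in cells/mm^2, 8 fields per retina, uninjured left eyes as naive controls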
Procedure: (§1) In this Example, retinal ischemia was induced by transient vascular clamping of the optic nerve in the right eyes of Sprague Dawley albino rats for 45 min. Reperfusion was initiated by the release of the clamp. Retinal function was evaluated by ERG at baseline and 7 days after ischemia. RGC survival was assessed by immunohistochemistry 7 days after ischemia.
(§2) Retinal ischemia was induced by vascular clamping of the optic nerve in the right eyes for 45 min. Reperfusion was initiated by the release of the clamp. Retinal function was evaluated by electroretinography (ERG) at baseline and 7 days after ischemia. Retinal Ganglion Cell (RGC) survival was assessed by immunohistology 7 days after ischemia.
To assess the effect of the treatment on RGC viability, the RGC density was evaluated 7 days after ischemia by immunohistochemistry with a stain for the RGC specific marker Brn3a.
After euthanasia, the right eyeballs were fixed in Formalin 4% (24 h at 4° C.), dissected and retinas were flat mounted. Two left eyes retinas per group were sampled and processed the same as the right eye retinas. They served as naïve controls. The flat mounted preparations were stained with an Alexa 594 conjugated anti-BRN3A (Brain-specific hoeobox/POU domain protein 3A, Chemicon, cat #mAb1585) to label RGC. Fluorescence images were recorded with Apotome microscope at magnification ×10 (Zeiss). RGC were counted with Image J software in 8 locations for each retina area (2 pictures per quarter). The cell count was reported in cell/mm^2.

[4] = tested on: primary mixed cortical/hippocampal neuronal cultures; conditions: cultures exposed to the ER stressor tunicamycin; cited from earlier work
[5] = tested on: ischemia of the brain (tMCAO); conditions: cited from earlier work
[6] = tested on: retinal function after transient retinal ischemia (optic nerve clamping); test: Electroretinography (ERG a-wave/b-wave amplitude) after retinal ischemia by optic nerve clamping
Procedure: as §1, §2
The functional status of the retina was evaluated by electroretinography one week after the ischemic insult and compared to baseline values determined just prior to optic nerve ischemia. The b-wave is induced by potassium efflux shunted from activated bipolar cells by Müller cells and is an electrophysiological indicator of inner retinal signal transmission. The ERG parameters applied were the following: Color: white maximum; Maximum intensity: 2.6 cd·s/m2 (0 dB); Duration 0.24 ms; Numbers of flashes: 1; Filter: 50 Hz; Impedance threshold: 90 kΩ.
Test and control items were injected intravitreally (4 μL) in right eye from anesthetized rat using a mix of xylazine/ketamine and a 30-G needle mounted on a syringe, immediately after reperfusion.
Reference item was intraperitoneally dosed using a 0.5 mL/kg volume of administration, 30 min before induction.
Right eyes underwent a temporal orbitectomy combined with periorbital stripping. The globe remained in the orbit and was completely isolated on a pedicle consisting of the optic nerve, ophthamociliary arteries and the venous outflow. A clamp placed around the pedicle initiated the global ocular ischemia when tightened.
Ischemia was maintained for 45 minutes. The reperfusion period was initiated by the release of the clamp.
ERG was recorded before ischemia (baseline) and 7 days after reperfusion in both eyes. The a-wave and b-wave amplitudes (μV) were measured for each ERG; the a-wave and b-wave amplitudes as a percentage of the baseline values obtained before ischemia. […] Mydriaticum (0.5% tropicamide) were instilled for pupillary dilatation.
ERG parameters: • Color: white maximum. • Maximum intensity: 2.6 cd·s/m2 (0 dB); Duration 0.24 ms; number of flash: 1. • Filter: 50 Hz. • Impedance Threshold: 90 kΩ.

[7] = MANF 1.5 mg/mL intravitreal, treated right (ischemic) eye, individual rats

B1: mesencephalic astrocyte-derived neurotrophic factor (protein)
chain: GRFYQDLKDRDVTFSPATIENELIKFCREARGKENRLCYYIGATDDAATKIINEVSKPLAHHIPVEKICEKLKKKDSQICELKYDKQIDLSTVDTKKLRVKELKKILDDWGETCKGCAEKSDYIRKINELMPKYAPKAASARTDL
[1]; right eye, 15 days, McDonald-Shadduck scale
  Effects on body weight, clinical observations or ophthalmic examinations: no treatment- or administration-related effects
[1]; 15 days
  Ocular tolerance: macroscopically and microscopically well tolerated
[1]; Day 15
  Histopathology evaluation of the eyes: No pathological findings related to treatment
[2]; MANF 0.15 mg/mL intravitreal
  Body weight, sacrifice day, mean: 343 g
[2]; MANF 0.5 mg/mL intravitreal
  Body weight, sacrifice day, mean: 345 g
[2]; MANF 1.5 mg/mL intravitreal
  Body weight, sacrifice day, mean: 347 g
[2]; daily observation during the study period, regardless the dose
  General behavior and appearance: not altered
[3]; MANF 0.15 mg/mL intravitreal
  Alive cells (BrN3A positive) in right eye, group Mean: 402.8 cells/mm^2
  Alive cells (BrN3A positive) in right eye, individual mean cells/mm^2: 469 cells/mm^2 and 722 cells/mm^2 and 636 cells/mm^2 and 471 cells/mm^2 and 456 cells/mm^2 and 374 cells/mm^2 and 161 cells/mm^2 and 432 cells/mm^2 and 408 cells/mm^2 and 448 cells/mm^2 and 47 cells/mm^2 and 210 cells/mm^2
[3]; MANF 0.15 mg/mL
  RGC density, alive cells (BrN3A positive) in right eye: 403±189 cells/mm^2 and 402.8 cells/mm^2
[3]; MANF 0.5 mg/mL intravitreal
  Alive cells (BrN3A positive) in right eye, group Mean: 464.9 cells/mm^2
  Alive cells (BrN3A positive) in right eye, individual mean cells/mm^2: 512 cells/mm^2 and 443 cells/mm^2 and 613 cells/mm^2 and 364 cells/mm^2 and 379 cells/mm^2 and 549 cells/mm^2 and 336 cells/mm^2 and 97 cells/mm^2 and 249 cells/mm^2 and 1209 cells/mm^2 and 105 cells/mm^2 and 724 cells/mm^2
[3]; MANF 0.5 mg/mL
  RGC density, alive cells (BrN3A positive) in right eye: 465±301 cells/mm^2 and 464.9 cells/mm^2
[3]; MANF 1.5 mg/mL intravitreal
  Alive cells (BrN3A positive) in right eye, group Mean: 487.7 cells/mm^2
  Alive cells (BrN3A positive) in right eye, individual mean cells/mm^2: 546 cells/mm^2 and 378 cells/mm^2 and 549 cells/mm^2 and 723 cells/mm^2 and 536 cells/mm^2 and 974 cells/mm^2 and 197 cells/mm^2 and 543 cells/mm^2 and 488 cells/mm^2 and 260 cells/mm^2 and 342 cells/mm^2 and 316 cells/mm^2
[3]; MANF 1.5 mg/mL
  RGC density, alive cells (BrN3A positive) in right eye: 488±214 cells/mm^2 and 488±14 cells/mm^2 and 487.7 cells/mm^2
[3]; single intravitreal MANF at 0.15, 0.5 and 1.5 mg/mL, one-week reperfusion
  Protection of RGC, in words: a trend in protecting RGCs; also recorded: protecting RGC
[4]
  Protection against tunicamycin (TUNEL-positive cells as marker of apoptosis): fully protected
[5]; MANF expressed in the cortex using an AAV-based vector
  Reduction of infarct size: 40%
[5]; day 2, compared to vehicle treated animals
  Reduction of infarct size: 50%
[6]; MANF 0.5 mg/mL intravitreal, Day 7, group mean
  A-wave amplitude (μV), treated right eye: −268.9 μV
[6]; [7]
  A-wave Amplitude (μV) Day 7: −254 μV and −299 μV and −255 μV
  B-wave Amplitude (μV) Day 7: 426 μV and 456 μV
